This passage reports Kd, kon and fold increase in Kd over WT results from publication PMC5500802.

The target of experiment [1] is GST-WASP (Wiskott–Aldrich syndrome protein) fusion construct. The experiment can be described thus: BLI; Octet Red; GST fusion proteins (10 μg/ml) loaded on anti-GST sensors, dipped into a dilution range of Cdc42·GMPPNP; 50 mM Tris–HCl pH 7.5, 150 mM NaCl, 1 mM MgCl2, 0.02% Tween 20, 0.1% BSA, 0.05% sodium azide, 25 °C; GST-alone sensors subtracted.
For experiment [2], the target named is GST-WASP ΔBR (basic region mutant of WASP). Described as above.
Experiment [3] concerns the target GST-ACK GBD wild type, ACK(448-489) (UniProt Q07912). Described as above.
For the next experiment, the target named is GST-ACK GBD Q459A (UniProt Q07912). As to the kind of experiment: scintillation proximity assay (direct binding); 20 nM GST-ACK variant immobilised on protein A SPA fluoromicrospheres via an anti-GST antibody; varying concentrations of [3H]GTP-Cdc42; background without effector subtracted; apparent Kd from a direct binding isotherm.
A further experiment concerns the target GST-ACK GBD T465A (UniProt Q07912). Described as above.
The next experiment deals with GST-ACK GBD L487A (UniProt Q07912). Described as above.
For another experiment, the target named is GST-ACK GBD G468A (UniProt Q07912). The experiment is described as above.
The next experiment addresses GST-ACK GBD S455A (UniProt Q07912). The description is as above.
The target in another experiment is GST-ACK GBD W476A (UniProt Q07912). The description is as above.
The next experiment concerns the target GST-ACK GBD D480A (UniProt Q07912). Described as above.
The target of a further experiment is GST-ACK GBD H467A (UniProt Q07912). The experiment is described as above.
Another experiment deals with GST-ACK GBD H464A/H467A (UniProt Q07912). Described as above.
The target in another experiment is GST-ACK GBD Δ17 (UniProt Q07912). Described as above.
Experiment [4] deals with GST-ACK GBD wild type, ACK(448-489) (UniProt Q07912). Described as above.
A further experiment addresses GST-ACK GBD L449A (UniProt Q07912). The experiment is described as above.
The next experiment deals with GST-ACK GBD I463A (UniProt Q07912). Described as above.
The target in a further experiment is GST-ACK GBD P457A (UniProt Q07912). The description is as above.
In a further experiment the target is GST-ACK GBD A451D (UniProt Q07912). Described as above.
The target in a further experiment is GST-ACK GBD H464A (UniProt Q07912). Described as above.
The target of a further experiment is GST-ACK GBD D469A (UniProt Q07912). The experiment is described as above.
For the next experiment, the target named is GST-ACK GBD Q452A (UniProt Q07912). The experiment is described as above.
The target in a further experiment is GST-ACK GBD L485A (UniProt Q07912). Described as above.
In a further experiment the target is GST-ACK GBD R481A (UniProt Q07912). Described as above.
For the next experiment, the target named is GST-ACK GBD S470A (UniProt Q07912). Described as above.
In the next experiment the target is GST-ACK GBD S461A (UniProt Q07912). The description is as above.
In a further experiment the target is GST-ACK GBD S450A (UniProt Q07912). The description is as above.
A further experiment concerns the target GST-ACK GBD F462A (UniProt Q07912). Described as above.
The target in the next experiment is Cdc42 Δ7 Q61L (UniProt P60953). The experiment can be described thus: scintillation proximity assay (competition); 30 nM GST-WT ACK GBD immobilised on protein A SPA fluoromicrospheres via an anti-GST antibody, 30 nM [3H]GTP-Cdc42; increasing concentrations of GST-cleaved ACK variant; pure competition model, apparent Kd (Ki). A general note: Scintillation proximity formats need no separation of bound from free tracer.

Where only a bound is given, the exact number is not on record here.

In general, kon refers to the rate constant with which the complex forms. Low readings indicate slow association, high ones fast association.

In the case of “Cdc42 Δ7 Q61L (from UniProt P60953 1-191) (natural protein)”, the Kd amounted to 30 nM in [1]; 220 nM in [2]; 130 nM in experiment [3]; 29.8 nM in the experiment with GST-ACK GBD Q459A; 85.4 nM in the experiment with GST-ACK GBD T465A; 330 nM with GST-ACK GBD L487A. The Kd with GST-ACK GBD G468A came to 67.3 nM; with GST-ACK GBD S455A, 243 nM; in the experiment with GST-ACK GBD W476A it was 137 nM; with GST-ACK GBD D480A it was 164 nM; in experiment [4], 44.2 nM; in the experiment with GST-ACK GBD L449A it was 492 nM. Besides, the Kd with GST-ACK GBD I463A worked out at 152 nM; with GST-ACK GBD A451D, 189 nM; with GST-ACK GBD D469A, 38 nM; with GST-ACK GBD Q452A, 44 nM; with GST-ACK GBD L485A, 31.4 nM; in the experiment with GST-ACK GBD R481A, 107 nM. The Kd with GST-ACK GBD S470A was found to be 35.4 nM; in the experiment with GST-ACK GBD S450A, 167 nM. Further, the results for the on-rate (kon) in experiment [1], in [2] and in experiment [3] were 793000 M⁻¹ s⁻¹, 360000 M⁻¹ s⁻¹ and 224000 M⁻¹ s⁻¹, respectively. The fold increase in Kd over WT in the experiment with GST-ACK GBD H467A, with GST-ACK GBD H464A/H467A, with GST-ACK GBD Δ17, in the experiment with GST-ACK GBD P457A, with GST-ACK GBD H464A and in the experiment with GST-ACK GBD S461A was > 22.6 -fold in each case. For the same molecule, in the experiment with GST-ACK GBD F462A, the fold increase in Kd over WT was > 22.6 -fold.

B1: ACK GBD Δ17, cleaved from GST (domain or fragment)
chain: GLSAQDISQPLQNSFIHTGHGDSDP
For B1, the Kd with Cdc42 Δ7 Q61L amounted to 4760 nM.

B2: ACK GBD wild type, ACK(448-489), cleaved from GST (domain or fragment)
chain: GLSAQDISQPLQNSFIHTGHGDSDPRHCWGFPDRIDELYLGN
As for B2, the Kd with Cdc42 Δ7 Q61L is 20 nM.

B3: ACK GBD S455A, cleaved from GST (domain or fragment)
chain: GLSAQDIAQPLQNSFIHTGHGDSDPRHCWGFPDRIDELYLGN
As to B3, the Kd with Cdc42 Δ7 Q61L was determined as 750 nM.

B4: ACK GBD P457A, cleaved from GST (domain or fragment)
chain: GLSAQDISQALQNSFIHTGHGDSDPRHCWGFPDRIDELYLGN
For B4, the Kd with Cdc42 Δ7 Q61L stood at 3830 nM.

B5: ACK GBD I454A, cleaved from GST (domain or fragment)
chain: GLSAQDASQPLQNSFIHTGHGDSDPRHCWGFPDRIDELYLGN
For the molecule B5, the Kd with Cdc42 Δ7 Q61L was 19700 nM.

B6: ACK GBD H467A, cleaved from GST (domain or fragment)
chain: GLSAQDISQPLQNSFIHTGAGDSDPRHCWGFPDRIDELYLGN
With B6, in the experiment with Cdc42 Δ7 Q61L, the Kd was 1790 nM.

B7: ACK GBD F462A, cleaved from GST (domain or fragment)
chain: GLSAQDISQPLQNSAIHTGHGDSDPRHCWGFPDRIDELYLGN
On to B7, for which the Kd in the experiment with Cdc42 Δ7 Q61L was 3460 nM.

B8: ACK GBD S461A, cleaved from GST (domain or fragment)
chain: GLSAQDISQPLQNAFIHTGHGDSDPRHCWGFPDRIDELYLGN
In the case of B8, in the experiment with Cdc42 Δ7 Q61L, the Kd is 4160 nM.

B9: ACK GBD H464A, cleaved from GST (domain or fragment)
chain: GLSAQDISQPLQNSFIATGHGDSDPRHCWGFPDRIDELYLGN
For the molecule B9, the Kd with Cdc42 Δ7 Q61L is 2510 nM.
